Experimental data from article PMC6277429.

Assays:
Assay in all cases: EMSA
Details in all cases: 10 mM Tris pH 7.5, 100 mM KCl (Fig. 3 legend; not in Methods), 1 mM DTT, 2.5% glycerol, 20 mM MgCl2, 500 ng poly(dI-dC), 0.05% NP-40; 30 nM DNA; 10 min room …
[1] = biological target: T1, His-GlnR (Mycobacterium smegmatis mc2 155) (UniProt A0R4C4)
T1 sequence: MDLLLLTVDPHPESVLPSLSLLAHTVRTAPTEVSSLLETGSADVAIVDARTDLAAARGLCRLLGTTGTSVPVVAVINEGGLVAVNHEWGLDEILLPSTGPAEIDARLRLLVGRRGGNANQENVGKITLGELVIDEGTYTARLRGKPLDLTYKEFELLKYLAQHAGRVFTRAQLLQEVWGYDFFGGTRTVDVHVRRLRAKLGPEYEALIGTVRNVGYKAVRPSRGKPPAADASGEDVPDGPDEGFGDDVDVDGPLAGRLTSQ

[2] = biological target: T2, MBP-NnaR (Mycobacterium smegmatis mc2 155) (UniProt A0QPK7)
T2 sequence: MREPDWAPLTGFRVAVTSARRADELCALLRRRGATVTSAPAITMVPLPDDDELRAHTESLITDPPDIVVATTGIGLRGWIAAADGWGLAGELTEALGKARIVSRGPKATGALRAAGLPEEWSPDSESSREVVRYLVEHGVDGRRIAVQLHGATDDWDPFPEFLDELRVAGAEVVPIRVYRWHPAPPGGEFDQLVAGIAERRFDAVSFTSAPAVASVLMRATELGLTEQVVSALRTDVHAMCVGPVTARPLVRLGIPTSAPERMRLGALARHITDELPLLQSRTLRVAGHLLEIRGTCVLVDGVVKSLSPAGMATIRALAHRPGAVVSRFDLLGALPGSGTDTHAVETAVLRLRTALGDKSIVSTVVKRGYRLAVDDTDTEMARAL

[3] = biological target: T3, MBP-NnaR;His-GlnR (Mycobacterium smegmatis mc2 155;Mycobacterium smegmatis mc2 155) (UniProt A0QPK7+A0R4C4)
T3 sequence 1: T2 sequence
T3 sequence 2: T1 sequence

In the case of “ATCTGCATCATCTCGCGACTTTGGTCAGCTGTCGCCCTGGCGCGCCGAGGCACGGCAGGTTTCGCACGCCCAGGCATCTCACAGCCGACGCTGAGCTGATGTGCGCAGATGGCAACACCGATGCATAGGTCAAGTCGCCGAACCGCAATCTGGGCGCGACACGGTCTAGGGAACTGTCCATCGGGTCCATCGGAAGGTTGCACCCAATG (double strand) [msmeg_5360 promoter]”, the binding [1] is reported as “no binding”, the binding [2] is reported as “no binding” and the binding [3] is reported as “binds”.

For “CGTGTGGCCCTTTCGTTCGATCCCGAGCACAGAGATTAACTGTACTGACCACGCAAGGCGAGACGTCGGCACTCGTGACGTCCTCACACGGTTTTCACAACGCACTCACAAGACATGTGAGCAGCACGTAGCGGACCCGGTACGCCTGGGCAATGGTGCGGCAACGGGGTTCTCCGACGCTGAACGCATG (double strand) [msmeg_5765 promoter]”, the binding [1] was “binds more weakly” and the binding [2] was “binds”.

“GCAGCTTGGACCACCTATTTCCACGCCATGAACGACCTCGCCCGAAAATTGATGAGCGCGTTCGCCCTCGGGTTGAGGTTGCCCGCCGACTACTTCGTCGACACCATCGA (double strand) [msmeg_4008 promoter]” was tested, and the binding [1] was “no binding”, the binding [2] was “no binding” and the binding [3] was “binds”.

For “CATAGGGCGAGGCTAAGAACCCGATATTGCCGCGATGTCGCGCTGTGTGAAGCCCCCATCACGGTGTGCTCACGTCTTCGGCAACGCACATGTGAGGTCCCCGACCGGTGAGCTCTCCGGACCACAGTCAGGCCACAACCGCC (double strand) [msmeg_0427 promoter]”, the binding [2] was “binds”.

With “GACCCCTGGTGACCGCGTAACGGCTTTCTCACAGGTGCCCGCCGATCCAGGTGAGCGGAATTTCACGGCCGGGTCATCGCGCGCAGTGTCGGGGCAATAATCGCTTTCTAGCGTGCTCGCATG (double strand) [msmeg_0433 promoter]” the binding [1] was “binds more weakly” and the binding [2] was “binds”.
